Results published in patent US20250277048A1 (Regeneron, published 2025).

B1: 21519P2 (antibody, human IgG4 S228P, kappa, V domains shown)
VH: QLQLQESGPGLVRPSETLSLTCSVSGASMNTNNYYWGWIRQPPGKGLEWIGSGYYNGNTYYNPSLKSRVTISVDTSKNQFSLKLNSVTAADTAVYYCARQTPPRIIGSPNIWGQGTMVTVSS
VL: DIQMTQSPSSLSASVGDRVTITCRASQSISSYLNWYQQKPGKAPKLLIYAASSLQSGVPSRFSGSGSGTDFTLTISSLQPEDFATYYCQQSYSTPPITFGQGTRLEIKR
notes: parental bivalent anti-CD40 mAb; common light chain; also called H4sH21519P2
B2: 21520P2 (antibody, human IgG4 S228P, kappa, V domains shown)
VH: EVQLVESGGGLVQPGGSLRLSCAASGFTFGSYGMAWVRQAPGKGLEWVSAISGSGDYTNYADSVKRRFTISRDNSKNTLYLQMSSLRAEDTAVYYCAKEKTGTTGYLYSGMDVWGQGTTVTVSS
VL: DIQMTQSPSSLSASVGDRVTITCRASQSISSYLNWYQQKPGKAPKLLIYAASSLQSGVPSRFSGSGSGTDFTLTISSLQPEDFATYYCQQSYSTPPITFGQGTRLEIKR
notes: parental bivalent anti-CD40 mAb; common light chain; also called H4sH21520P2
B3: REGN16431 (bispecific antibody, human IgG4 S228P, kappa)
heavy 1: QLQLQESGPGLVRPSETLSLTCSVSGASMNTNNYYWGWIRQPPGKGLEWIGSGYYNGNTYYNPSLKSRVTISVDTSKNQFSLKLNSVTAADTAVYYCARQTPPRIIGSPNIWGQGTMVTVSSASTKGPSVFPLAPCSRSTSESTAALGCLVKDYFPEPVTVSWNSGALTSGVHTFPAVLQSSGLYSLSSVVTVPSSSLGTKTYTCNVDHKPSNTKVDKRVESKYGPPCPPCPAPPVAGPSVFLFPPKPKDTLMISRTPEVTCVVVDVSQEDPEVQFNWYVDGVEVHNAKTKPREEQFNSTYRVVSVLTVLHQDWLNGKEYKCKVSNKGLPSSIEKTISKAKGQPREPQVYTLPPSQEEMTKNQVSLTCLVKGFYPSDIAVEWESNGQPENNYKTTPPVLDSDGSFFLYSRLTVDKSRWQEGNVFSCSVMHEALHNHYTQKSLSLSLGK
heavy 2: EVQLVESGGGLVQPGGSLRLSCAASGFTFGSYGMAWVRQAPGKGLEWVSAISGSGDYTNYADSVKRRFTISRDNSKNTLYLQMSSLRAEDTAVYYCAKEKTGTTGYLYSGMDVWGQGTTVTVSSASTKGPSVFPLAPCSRSTSESTAALGCLVKDYFPEPVTVSWNSGALTSGVHTFPAVLQSSGLYSLSSVVTVPSSSLGTKTYTCNVDHKPSNTKVDKRVESKYGPPCPPCPAPPVAGPSVFLFPPKPKDTLMISRTPEVTCVVVDVSQEDPEVQFNWYVDGVEVHNAKTKPREEQFNSTYRVVSVLTVLHQDWLNGKEYKCKVSNKGLPSSIEKTISKAKGQPREPQVYTLPPSQEEMTKNQVSLTCLVKGFYPSDIAVEWESNGQPENNYKTTPPVLDSDGSFFLYSRLTVDKSRWQEGNVFSCSVMHEALHNRFTQKSLSLSPGK
light: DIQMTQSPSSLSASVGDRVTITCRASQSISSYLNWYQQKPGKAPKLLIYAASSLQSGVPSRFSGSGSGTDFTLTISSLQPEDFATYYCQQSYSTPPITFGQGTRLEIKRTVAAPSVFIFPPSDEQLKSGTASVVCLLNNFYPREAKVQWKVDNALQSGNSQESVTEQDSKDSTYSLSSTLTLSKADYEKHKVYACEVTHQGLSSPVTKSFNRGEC
notes: D1 arm from 21519P2, D2 arm from 21520P2, common light chain; also called CD40xCD40 (21519 x 21520)
B4: REGN16432 (bispecific antibody, human IgG4 S228P, kappa)
heavy 1: EVQLVESGGGLVQPGGSLRLSCAASGFTFSSYAMNWVRQAPGKGLEWVSIISGTIGKTYYADSVKGRFTISRDNSKNTLYLQMNSLRGEDTAVYYCAKDTERDITGSPFDYWGQGTLVTVSSASTKGPSVFPLAPCSRSTSESTAALGCLVKDYFPEPVTVSWNSGALTSGVHTFPAVLQSSGLYSLSSVVTVPSSSLGTKTYTCNVDHKPSNTKVDKRVESKYGPPCPPCPAPPVAGPSVFLFPPKPKDTLMISRTPEVTCVVVDVSQEDPEVQFNWYVDGVEVHNAKTKPREEQFNSTYRVVSVLTVLHQDWLNGKEYKCKVSNKGLPSSIEKTISKAKGQPREPQVYTLPPSQEEMTKNQVSLTCLVKGFYPSDIAVEWESNGQPENNYKTTPPVLDSDGSFFLYSRLTVDKSRWQEGNVFSCSVMHEALHNHYTQKSLSLSLGK
heavy 2: B3 heavy 2
light: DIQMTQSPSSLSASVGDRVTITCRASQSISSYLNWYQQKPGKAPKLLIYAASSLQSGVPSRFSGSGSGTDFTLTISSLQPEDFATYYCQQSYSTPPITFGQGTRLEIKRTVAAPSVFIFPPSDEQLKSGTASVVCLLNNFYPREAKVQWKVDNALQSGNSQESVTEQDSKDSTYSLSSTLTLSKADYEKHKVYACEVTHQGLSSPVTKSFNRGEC
notes: D1 arm from 30027P2, D2 arm from 21520P2, common light chain; also called CD40xCD40 (30027 x 21520)
B5: 30027P2 (antibody, human IgG4 S228P, kappa, V domains shown)
VH: EVQLVESGGGLVQPGGSLRLSCAASGFTFSSYAMNWVRQAPGKGLEWVSIISGTIGKTYYADSVKGRFTISRDNSKNTLYLQMNSLRGEDTAVYYCAKDTERDITGSPFDYWGQGTLVTVSS
VL: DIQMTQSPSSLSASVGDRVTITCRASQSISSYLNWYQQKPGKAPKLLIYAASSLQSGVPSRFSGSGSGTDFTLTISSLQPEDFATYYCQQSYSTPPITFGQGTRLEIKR
notes: parental bivalent anti-CD40 mAb; common light chain; also called H4sH30027P2

biological target: T1, human CD40 (hCD40) expressed on cells (human, UniProt P25942 21-277); test: cell-based or functional assay
T1 sequence (P25942 21-277): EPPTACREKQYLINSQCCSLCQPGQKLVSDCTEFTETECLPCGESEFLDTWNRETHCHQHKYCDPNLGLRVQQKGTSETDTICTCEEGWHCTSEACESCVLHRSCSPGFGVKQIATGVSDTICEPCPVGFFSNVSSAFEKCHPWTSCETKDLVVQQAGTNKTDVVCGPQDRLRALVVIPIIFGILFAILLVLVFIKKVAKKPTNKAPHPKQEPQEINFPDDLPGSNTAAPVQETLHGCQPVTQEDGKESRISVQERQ

IC50, 900 pM hCD40L, Raji NFkB-luc [M]	Max % activation, no ligand, Raji NFkB-luc [%]	Max % inhibition, 900 pM hCD40L, Raji NFkB-luc [%]	EC50, no ligand, Raji NFkB-luc [nM]	Binder
6.05e-11	15	92		B1
7.7e-11	25	81	> 100	B2
1.07e-10	13	82		B3
1.02e-10	5	68		B4
8.95e-12	9	67		B5

biological target: T1, human CD40 (hCD40) expressed on cells; test: flow cytometry, HEK293/D9/hCD40 cells
Description: (§1) Cells were washed with 2% FBS (w/v) in 1×PBS (flow cytometry staining buffer) by centrifugation with benchtop Centrifuge 5810R (Eppendorf®, Hamburg, Germany). Cells were incubated for 30 minutes at 4° C. with serial dilutions of following antibodies ranging from 1.7 pM to 100 nM in flow cytometry staining buffer (1) anti-CD40×CD40 bispecific antibodies, or (2) parental anti-CD40 antibodies (bivalent antibodies comprising 2 fragment antigen-binding [Fab] arms identical to one of the two anti-CD40 Fab of bispecific anti-CD40×CD40 antibodies), or (3) anti-CD40×Irrelevant antibodies (bivalent antibodies that incorporate one Fab arm identical to one of anti-CD40 Fab of anti-CD40×CD40 antibodies and another Fab arm specific to an irrelevant antigen, i.e. birch pollen main allergen Bet v1), or (4) human IgG4 isotype control antibodies with Fc mutation. After washing, cell bound antibodies were detected with 2.5 μg/ml Allophycocyanin (APC)-conjugated goat anti-human IgG antibody specific for the Fcγ fragment (Jackson Immunoresearch, West Grove, PA) for 30 minutes at 4° C. Cells were washed and subsequently fixed with 50% solution of Cytofix™ Fixation Buffer (BD, Franklin Lakes, NJ) in flow cytometry staining buffer for 20 minutes at room temperature. Cells were washed and resuspended in flow cytometry staining buffer and stored at 4° C. for downstream flow cytometry analysis.
(§2) Acquisition of fluorescence signals were recorded on the ZE5 Cell Analyzer (Bio-Rad, Hercules, CA) according to the manufacturer's recommended procedure and flow cytometry data analysis was performed using the open-source R packages flowCore, flowStats, flowDensity, ggCyto, and flowAI. Multiplexed samples were deconvoluted and individual cell populations were identified based on their unique CellTrace™ fluorescence signature. APC Median Fluorescence intensity (MFI) was recorded to indicate the binding intensity of each antibody over a range of concentrations. Antibodies with MFI greater than 1500 at the highest tested concentration (100 nM) were classified as specific binders. In addition, direct binding signals (APC MFI) were analyzed as a function of the antibody concentration and data were fitted with a sigmoidal (four-parameter logistic) dose-response model using GraphPad Prism™ software.

EC50 [nM]	MFI at 100 nM [MFI]	Binder
1.3	20200	B1
0.82	20700	B2
1.9	29500	B3
1.5	30300	B4
0.72	20900	B5

biological target: T1, human CD40 (hCD40) expressed on cells; test: cell-based or functional assay; remark: another data set of the same source

IC50, 500 pM hCD40L, Ramos NFkB-luc [M]	Max % activation, no ligand, Ramos NFkB-luc [%]	Max % inhibition, 500 pM hCD40L, Ramos NFkB-luc [%]	EC50, no ligand, Ramos NFkB-luc [nM]	IC50, 500 pM hCD40L, Ramos NFkB-luc (three highest concentrations excluded, hook effect) [M]	EC50 (potentiation), 500 pM hCD40L, Ramos NFkB-luc [M]	Binder
3.09e-11	13	88				B1
	49	63	> 10	8.06e-11		B2
8.54e-11	6	90				B3
4.92e-11	4	94				B4
	8	-130			8.14e-12	B5

biological target: T2, human CD40 extracellular domain expressed with a C-terminal myc-myc-hexahistidine tag (human); test: ELISA blocking of 40 nM hCD40-mmH binding to 9His-hCD40L
T2 construct: also called hCD40-MMH; hCD40-mmH
Description: An ELISA-based blocking assay was developed to determine the ability of C40×CD40 bispecific antibodies to block the binding of the hCD40 monomer to plate-coated hCD40L. The recombinant human CD40-mmH protein (hCD40-MMH; REGN3094; SEQ ID NO: 53) used in the experiments comprises a portion of the human CD40 extracellular domain (amino acids P20-R193) fused to 2×Myc peptide and 6×histadine (SEQ ID NO: 1110) at the C-terminus of human CD40, and the human CD40L (accession #NM_000074.2) with amino acids E108-L261 of the extracellular domain with 9×His-2×(SGGG)-IGER at the N-terminus (9His-hCD40L) was commercially obtained from Biolegend.
In the blocking assay, 9His-hCD40L was passively absorbed at a concentration of 5 μg/mL in PBS on a 96-well microtiter plate overnight at 4° C. […] In a separate 96-well microtiter plate, a fixed amount of 40 nM hCD40-mmH was pre-mixed with one of the following antibodies, at concentrations ranging from 977 pM to 1 μM in PBS+0.5% BSA: (1) CD40×CD40 bispecific antibodies (REGN16431, REGN16432, REGN16634, and REGN16335); (2) parental CD40 mAbs (bivalent antibodies comprising 2 fragment antigen-binding [Fab] arms identical to one of anti-CD40 Fab of CD40×CD40 antibodies); (3) CD40×Irrelevant antibodies (bivalent antibodies that incorporate one Fab arm identical to one of anti-CD40 Fab of CD40×CD40 antibodies and another Fab arm specific to an irrelevant antigen); and (4) human IgG4 with Fc mutation isotype control antibodies (REGN7540 and REGN4513). The fixed concentration of hCD40-mmH was selected to be near the concentration (EC₅₀ value) that generated 50% of the maximal binding to the plate-adhered 9His-hCD40L. After one-hour incubation, the antibody-antigen complexes were transferred to the microtiter plate coated with 9His-hCD40L. After one hour incubation at room temperature, the plates were washed, and plate-bound hCD40-mmH protein was detected with horseradish peroxidase (HRP) conjugated goat anti-c-Myc antibody. The plates were then developed using TMB substrate solution (BD Biosciences) according to the manufacturer's recommended procedure and the absorbance at 450 nm (OD₄₅₀) was measured on a SpectraMax i3×plate reader.

% Blocking at 1 uM mAb [%]	IC50 [nM]	Binder
94	61	B1
94	62	B2
93	33	B3
95	32	B4
10		B5

biological target: T3, Macaca fascicularis CD40 (mfCD40) expressed on HEK293/D9/mfCD40 cells (Macaca fascicularis, UniProt G7PG38 21-278); test: flow cytometry, HEK293/D9/mfCD40 cells
T3 construct: whole, on cells; also called monkey CD40
Description: as §1, §2

EC50 [nM]	MFI at 100 nM [MFI]	Binder
10	11500	B1
3.7	24100	B2
8.4	43100	B3
2.1	48700	B4
1	33900	B5
